First the molecules themselves.
B1: BMS3h-193-2506 (other)
VL: DIQMTQSPSSLSASVGDRVTITCRASQQIGRRLNWYQQKPGKAPRLLIYLATRLQSGVPSRFSGSGSGTDFTLTISSLQPEDFATYYCHQYESPPLTFGQGTKVEIKR
notes: domain antibody (dAb): single human V kappa domain
B2: BMS3h-193-2501 (other)
VL: B1 VL with Q28T, G30E, Y91F, S93H
notes: as for B1
B3: BMS3h-193-2502 (other)
VL: B1 VL with Q27F, Q28P, G30D
notes: as for B1
B4: BMS3h-193-2503 (other)
VL: B1 VL with Q27S, Q28T
notes: as for B1
B5: BMS3h-193-2510 (other)
VL: B1 VL with Q28S
notes: as for B1
B6: BMS3h-193-2507 (other)
VL: B1 VL with Q28P, G30A
notes: as for B1
B7: BMS3h-193-2504 (other)
VL: B1 VL with Q27S
notes: as for B1
B8: BMS3h-193-2505 (other)
VL: B1 VL with Q27E, Q28R
notes: as for B1
B9: BMS3h-56-246 (other)
VH: EVQLLESGGGLVQPGGSLRLSCAASGFTFRDYEMWWVRQAPGKGLERVSAINPWGTLTYYADSVKGRFTISRDNSKNTLYLQMNSLRAEDTAVYYCAKLPFTFEDWGQGTLVTVSS
notes: domain antibody (dAb): single human VH domain
B10: BMS3h-56-248 (other)
VH: B9 VH with W54Y, T56N, E104D
notes: as for B9
B11: BMS3h-56-220 (other)
VH: B9 VH with W54Y, T56G, E104D
notes: as for B9
B12: BMS3h-56-204 (other)
VH: B9 VH with W54Q, L57R, F101T, T102Y, E104K
notes: as for B9
B13: BMS3h-56-232 (other)
VH: B9 VH with T56S, L57H, E104D
notes: as for B9
B14: BMS3h-56-239 (other)
VH: B9 VH with T56S, E104D
notes: as for B9
B15: BMS3h-56-224 (other)
VH: B9 VH with T56Q
notes: as for B9
B16: BMS3h-56-205 (other)
VH: B9 VH with W54Q, L57R, T102Y, E104S, D105E
notes: as for B9
B17: BMS3h-56-225 (other)
VH: B9 VH with T56G, L57Y, E104D
notes: as for B9
B18: BMS3h-56-223 (other)
VH: B9 VH with K43R, W54P, T56M, E104D
notes: as for B9
B19: BMS3h-56-207 (other)
VH: B9 VH with W54Q, L57R, T102P, E104S, D105E
notes: as for B9
B20: BMS3h-56-243 (other)
VH: B9 VH with T56G, L57F
notes: as for B9
B21: BMS3h-56-244 (other)
VH: B9 VH with T56G, E104D
notes: as for B9
B22: BMS3h-56-229 (other)
VH: B9 VH with W54Y, T56S, E104D
notes: as for B9
B23: BMS3h-56-253 (other)
VH: B9 VH with W54A, T56G, L57Y, Y95H
notes: as for B9
B24: BMS3h-38-238 (other)
VH: EVQLLASGGGLVQPGGSLRLSCAASGFTFEEEEMIWVRQAPGKGLEWVSAISRSGYSTYYADSVKGRFTISRDNSKNTLYLQMNSLRAEDTAVYYCGKEPFRYDYWGQGTLVTVSS
notes: as for B9
B25: BMS3h-38-204 (other)
VH: B24 VH with E30P, E31Q, R53G, Y56G
notes: as for B9
B26: BMS3h-38-205 (other)
VH: B24 VH with E30F, E31A, E32A, R53G, Y56G
notes: as for B9
B27: BMS3h-38-231 (other)
VH: B24 VH with T28P, S54Q, Y56W
notes: as for B9
B28: BMS3h-38-226 (other)
VH: B24 VH with R53G, Y56G, F101L, R102Y
notes: as for B9
B29: BMS3h-38-202 (other)
VH: B24 VH with R53G, Y56G, R102Y, Y103F
notes: as for B9
B30: BMS3h-38-228 (other)
VH: B24 VH with S54N, Y56F
notes: as for B9
B31: BMS3h-38-237 (other)
VH: B24 VH with S54G, Y56W
notes: as for B9
B32: BMS3h-38-223 (other)
VH: B24 VH with R53G, Y56G, R102M
notes: as for B9
B33: BMS3h-38-203 (other)
VH: B24 VH with E32K, R53G, Y56G, R102F
notes: as for B9
B34: BMS3h-38-235 (other)
VH: B24 VH with S54N
notes: as for B9
B35: BMS3h-38-215 (other)
VH: B24 VH with R53G, S54L, Y56W
notes: as for B9
B36: BMS3h-38-217 (other)
VH: B24 VH with S54R
notes: as for B9
B37: BMS3h-38-218 (other)
VH: B24 VH with S54H, Y56W
notes: as for B9
B38: BMS3h-38-201 (other)
VH: B24 VH with R53G, Y56G, R102Y
notes: as for B9
B39: BMS3h-38-225 (other)
VH: B24 VH with R53G, Y56G, S57G
notes: as for B9
B40: BMS3h-38-224 (other)
VH: B24 VH with R53G, Y56G, R102P
notes: as for B9
B41: BMS3h-38-209 (other)
VH: B24 VH with S54L, Y56W
notes: as for B9
B42: BMS3h-37-205 (other)
VH: EVQLLESGGGLVQPGGSLRLSCAASGFTFEWYEMQWVRRAPGKGLEWVSAISGDGYRTYYADSVKGRFTISRDNSKNTLYLQMNSLRAEDTAVYYCAKELEYFDYWGRGTLVTVSS
notes: as for B9
B43: BMS3h-37-212 (other)
VH: B42 VH with Q13R, Y102F
notes: as for B9
B44: BMS3h-37-213 (other)
VH: B42 VH with E101L, Y102F, W106R
notes: as for B9
B45: BMS3h-37-206 (other)
VH: B42 VH with E99G
notes: as for B9
B46: BMS3h-37-207 (other)
VH: B42 VH with E101A, Y102F
notes: as for B9
B47: BMS3h-38-215 (other)
VH: B24 VH with R53G, S54L, Y56W
B48: BMS3h-38-228 (other)
VH: B24 VH with S54N, Y56F
B49: BMS3h-38-231 (other)
VH: B24 VH with T28P, S54Q, Y56W
B50: BMS3h-38-217 (other)
VH: B24 VH with S54R
B51: BMS3h-38-219 (other)
VH: B24 VH with A50S, Y56G

Numbering of substitutions follows the chain as printed. Several values for one entry are separate records, joined by “and”; a condition that tells them apart may be missing. Equal values may be shown once.

The text below walks through data of patent US20200199244A1 (published 2020).

The term EC50 denotes the concentration at which the effect is half-maximal.
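Wherever EC50 is given: Neutravidin-coated 384-well plates, dAb–human CD40 complex incubated 2 h at room temperature, read-out as absorbance at 450 nm.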

T1 sequence (P25942 21-193 limits assumed): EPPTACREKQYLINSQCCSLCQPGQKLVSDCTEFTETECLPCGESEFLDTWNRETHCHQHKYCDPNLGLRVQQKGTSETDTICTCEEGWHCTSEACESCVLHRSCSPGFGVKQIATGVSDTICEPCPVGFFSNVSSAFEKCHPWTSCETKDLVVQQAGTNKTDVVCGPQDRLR

The first test concerns the target T1, human CD40 (BMS, CY24FEB06-01) (human, UniProt P25942 21-193).
T1 construct: Soluble human CD40 reagent of the ELISA RBA
Put plainly: ELISA RBA, competition with IZ-CD40L for soluble human CD40. (In an ELISA, binding on a coated surface is turned into a signal by an enzyme label.)
Protocol: Clear walled High Bind, 384-well plates (Corning, UK) were coated with 25 μl of 1 μg/ml Neutravidin in 0.2 M carbonate-bicarbonate buffer, pH 9.4 overnight at 4° C. The following day, assay plates were washed with 0.1% (v/v) Tween PBS buffer, blocked with 1% (w/v) BSA in PBS for 1 hour at room temperature and washed again. […] Following washing of the assay plate, the dAb:human CD40 complex was incubated in the assay plate at room temperature for 2 hours with gentle agitation. […] Absorbance signal was measured using a SpectraMax® M5e plate reader (Molecular Devices) at 450 nm following neutralization with 1M HCl solution.
As for B1, the EC50 was 180 nM.
On to B2, for which the EC50 is 114 nM.
For B3, the EC50 came to 170 nM.
B4: the EC50 amounted to 3000 nM. Against the preceding molecule, the EC50 is about 18-fold higher.
In the case of B5, the EC50 is 170 nM.
Still for that read-out and setting: then B6, with 160 nM; and B7, with 140 nM.
On to B8, for which the EC50 was found to be 500 nM.
As to B9, the EC50 was 11.1 nM.
Consider B10, for which the EC50 was 0.7 nM.
For the molecule B11, a half-maximal response (EC50) required 4.2 nM.
B12 came in with an EC50 of 4.5 nM. This EC50 and that of the molecule before are within 1.5-fold of each other.
B13: the EC50 was 2.8 nM and 3.7 nM.
Molecule B14 came in with an EC50 of 2.7 nM.
Same read-out and setting: to B15 belongs 2.1 nM and 4.2 nM; to B16, 9 nM.
Turning to B17, the midpoint of the response, the EC50, lay at 2.9 nM.
B18 had an EC50 of 5 nM.
B19 displayed an EC50 of 7.3 nM.
As to B20, a half-maximal effect (EC50) was put at 9.9 nM.
B21: the EC50 stood at 6 nM.
In turn, B22 came in with an EC50 of 4.1 nM. The EC50 values of the last two molecules are within 1.5-fold of each other.
With B23, the EC50 was found to be 1.3 nM. This EC50 is about 3.2-fold lower than that of the molecule before.
In the case of B24, it took 5.1 nM to reach a half-maximal effect (EC50).
Turning to B25, the response was half-maximal at 4.8 nM (EC50).
With B26, the EC50 was 4.5 nM and 11.1 nM.
Same read-out and setting: then B27, with 4.4 nM; and B28, with 18.1 nM; and B29, with 4.8 nM.
The same measure, in the same setting: to B30 belongs 4 nM; to B31, 2 nM.
The molecule B32 had an EC50 of 5.7 nM.
Turning to B33, the EC50 was 5.5 nM.
With B34, the EC50 was 1.5 nM.
On the same count and under the same terms, to B35 belongs 2.3 nM and 3.6 nM; to B36, 1.8 nM and 2.2 nM; to B37, 3 nM.
Consider B38, for which the EC50 is 3.4 nM.
On the same count and under the same terms, to B39 belongs 8.8 nM; to B40, 6.3 nM; to B41, 10.2 nM.
Regarding B42, the EC50 was 3.1 nM and 4.4 nM.
The molecule B43 returned an EC50 of 24 nM.
In turn, B44 returned an EC50 of 16 nM.
Turning to B45, the EC50 was 3.2 nM and 8.9 nM.
Take B46: the EC50 was 2.5 nM and 6.6 nM.

In the next test the target is human CD40 (human, UniProt P25942 21-277). Put plainly: cell-based or functional assay.
Chain of human CD40 (P25942 21-277 limits assumed): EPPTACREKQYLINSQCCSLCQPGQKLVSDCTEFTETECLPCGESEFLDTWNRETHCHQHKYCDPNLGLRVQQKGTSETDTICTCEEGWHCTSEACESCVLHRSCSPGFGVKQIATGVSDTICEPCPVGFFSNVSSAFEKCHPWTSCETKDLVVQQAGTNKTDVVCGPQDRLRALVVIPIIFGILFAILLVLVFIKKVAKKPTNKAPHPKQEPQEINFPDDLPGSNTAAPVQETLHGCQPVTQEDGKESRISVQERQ
For the molecule B47, the “CHO-hCD40L-driven DC Activation IL-12 EC50” value was found to be 6 nM, the “CHO-hCD40L-driven Human B Cell Proliferation EC50” value came to 65 nM, the “T-B cell MLR EC50” value was 163 nM and the “hIZCD40L-driven Human B Cell Proliferation EC50” value amounted to 1 nM.
For B48, the “hIZCD40L-driven Human B Cell Proliferation EC50” value was found to be 0.7 nM.
B49: the “hIZCD40L-driven Human B Cell Proliferation EC50” value worked out at 0.66 nM.
As for B50, the “CHO-hCD40L-driven DC Activation IL-12 EC50” value was 1.7 nM, the “CHO-hCD40L-driven Human B Cell Proliferation EC50” value amounted to 34 nM, the “T-B cell MLR EC50” value was found to be 74 nM and the “hIZCD40L-driven Human B Cell Proliferation EC50” value came out at 0.8 nM.
Take B51: the “CHO-hCD40L-driven DC Activation IL-12 EC50” value was found to be 9 nM, the “CHO-hCD40L-driven Human B Cell Proliferation EC50” value came to 93 nM, the “T-B cell MLR EC50” value stood at 164 nM and the “hIZCD40L-driven Human B Cell Proliferation EC50” value amounted to 2 nM.
